Drawing on US20060183888A1, this text covers Km and kcat for 1 protein.

Substrate in the data set: C[C@@H]1CC=N[C@H]1C(=O)NCCCC[C@H](N)C(=O)O
The data set can be described thus: purified protein, by the assay type. To be noted: other: 37° C., pH 7.2.

Method: The pyrophosphate exchange reaction was essentially performed following the method of Cole and Schimmel. All reactions were performed in duplicate at 37° C. The 100 to 200 μl reactions contained (unless noted) 0.3 to 1 HM PylSHis6. […] The specific activity of the radiolabel was adjusted from 4 to 10 dpm/pmol). The concentration of protein was 0.3 to 1 μM. At specific times, 25 μl aliquots were removed and quenched in 500 μl of a stop solution containing 1.6% (w/v) activated acid-washed charcoal (Sigma Chemical Co., St. Louis, Mo.), 80 mM sodium tetrapyrophosphate, and 3.5% (v/v) perchloric acid. Samples were filtered through Whatman GF/C glass-fiber filters and then the filter was washed three times with 5 ml of 40 mM sodium tetrasodium pyrophosphate solution containing 1.7% perchloric acid (v/v) and once with 5 ml 100% ethanol. Filters were dried at 80° C. for 5 minutes then placed in 20 ml scintillation vials containing 10 ml of Ultima Gold F scintillation cocktail (PerkinElmer), shaken once, and counted in a liquid scintillation analyzer. Identical reactions without amino acid, ATP, or enzyme were also set up as negative controls in duplicate.

B1: PylS-His6 (Methanosarcina barkeri) (protein)
chain: MDKKPLDVLISATGLWMSRTGTLHKIKHHEVSRSKIYIEMACGDHLVVNNSRSCRTARAFRHHKYRKTCKRCRVSDEDINNFLTRSTESKNSVKVRVVSAPKVKKAMPKSVSRAPKPLENSVSAKASTNTSRSVPSPAKSTPNSSVPASAPAPSLTRSQLDRVEALLSPEDKISLNMAKPFRELEPELVTRRKNDFQRLYTNDREDYLGKLERDITKFFVDRGFLEIKSPILIPAEYVERMGINNDTELSKQIFRVDKNLCLRPMLAPTLYNYLRKLDRILPGPIKIFEVGPCYRKESDGKEHLEEFTMVNFCQMGSGCTRENLEALIKEFLDYLEIDFEIVGDSCMVYGDTLDIMHGDLELSSAVVGPVSLDREWGIDKPWIGAGFGLERLLKVMHGFKNIKRASRSESYYNGISTNL
As to B1, the Km came out at 53 µM and the kcat stood at 0.1 s⁻¹.
